From patent US20040121410A1, “Pain signaling molecules” (priority 2002, published 2004) come the findings set out here.

Assay [1] deals with MrgC11-GFP (mouse) [GFP: P42212]. Kind of assay: cell-based or functional assay.
For a further assay, the target named is MrgA1-GFP (mouse) (UniProt Q91WW5). Kind of assay: cell-based or functional assay.

Turning to FMRF-OH (peptide), in assay [1], the EC50 of calcium mobilization (FLEXstation assay) turned out to be 544 nM and the fold change of agonist activity against the amidated peptide was 4 to 5 fold. Moreover, in the assay with MrgA1-GFP (mouse), the EC50 of calcium mobilization (FLEXstation assay) worked out at 8200 nM and the fold decrease in fold change of agonist activity against FMRFa stood at 20 fold. For AF-2 (peptide), the EC50 of calcium mobilization (FLEXstation assay) in assay [1] came out at 130 nM. As for γ2-MSH (peptide), in assay [1], the EC50 of calcium mobilization (FLEXstation assay) worked out at 11 nM and the internalization of the receptor-GFP fusion (confocal microscopy, 1 µM γ2-MSH, 30 min, 37° C.) was > 90 % of cells.

Take FMRF-amide (peptide): in assay [1], the EC50 of calcium mobilization (FLEXstation assay) stood at 114 nM and the EC50 of calcium mobilization (HEK-MrgC11 cells) came to 114 nM. In the assay with MrgA1-GFP (mouse), the EC50 of calcium mobilization (FLEXstation assay) was determined as 420 nM and the EC50 of calcium mobilization (HEK-MrgA1 cells) worked out at 420 nM. For the substance BAM-15 (peptide), the EC50 of calcium mobilization (FLEXstation assay) was determined as 53 nM in assay [1] and 23300 nM in the assay with MrgA1-GFP (mouse).

In the case of F-M-R-(D)Fa (peptide), in the assay with MrgA1-GFP (mouse), the EC50 of calcium mobilization (HEK-MrgA1 cells) was 643 nM. Consider R-Fa (peptide), for which the EC50 of calcium mobilization (HEK-MrgC11 cells) in assay [1] is 460 nM. In the case of Kiss(112-121) (peptide), the EC50 of calcium mobilization (FLEXstation assay) in assay [1] came to 50 nM. Regarding PQRF-amide (peptide), the EC50 of calcium mobilization (FLEXstation assay) was 126 nM in assay [1] and over 10000 nM with MrgA1-GFP (mouse). Consider NPFF (peptide), for which the EC50 of calcium mobilization (FLEXstation assay) amounted to 54 nM in assay [1] and 2140 nM with MrgA1-GFP (mouse).

On to RFRP-3 (peptide), for which the EC50 of calcium mobilization (FLEXstation assay) in assay [1] was 113 nM. Consider F-(D)M-R-Fa (peptide), for which, in assay [1], the EC50 of calcium mobilization (HEK-MrgC11 cells) is 11 nM and the fold change of agonist activity against FMRFa was found to be 10 fold. Moreover, in the assay with MrgA1-GFP (mouse), the EC50 of calcium mobilization (HEK-MrgA1 cells) was 1260 nM and the fold decrease in fold change of agonist activity against FMRFa turned out to be 3 fold. Consider BAM3200 (peptide), for which the EC50 of calcium mobilization (FLEXstation assay) in assay [1] was 300 nM; with MrgA1-GFP (mouse), over 10000 nM.

On to BAM-22P (peptide), for which the EC50 of calcium mobilization (FLEXstation assay) was 26 nM in assay [1] and 2540 nM with MrgA1-GFP (mouse). With Met-ENK-RFamide (peptide), the EC50 of calcium mobilization (FLEXstation assay) turned out to be 133 nM in assay [1] and 5250 nM with MrgA1-GFP (mouse).

Turning to BAM-15-amide (peptide), in assay [1], the EC50 of calcium mobilization (FLEXstation assay) was 479 nM and the fold change of agonist activity against BAM-15 is 9 fold. In addition, in the assay with MrgA1-GFP (mouse), the EC50 of calcium mobilization (FLEXstation assay) came to 8770 nM and the fold change of agonist activity against BAM-15 is 2.7 fold. Take PrRP-20 (peptide): in assay [1], the EC50 of calcium mobilization (FLEXstation assay) was 144 nM. On to RFRP-1 (peptide), for which the EC50 of calcium mobilization (FLEXstation assay) in assay [1] turned out to be 1240 nM.

In the case of Kiss(107-121) (peptide), the EC50 of calcium mobilization (FLEXstation assay) in assay [1] was 102 nM. Turning to Met-Enk-RF (peptide), in assay [1], the EC50 of calcium mobilization (FLEXstation assay) was determined as 545 nM and the fold change of agonist activity against the amidated peptide was 4 to 5 fold. With γ1-MSH (peptide), the EC50 of calcium mobilization (FLEXstation assay) in assay [1] came out at 17 nM. As to AnthoRF-amide (peptide), the EC50 of calcium mobilization (FLEXstation assay) in assay [1] amounted to 16 nM. As to FLRF-amide (peptide), the EC50 of calcium mobilization (FLEXstation assay) in assay [1] was 157 nM. Further, in the assay with MrgA1-GFP (mouse), the EC50 of calcium mobilization (FLEXstation assay) worked out at 402 nM and the internalization of the receptor-GFP fusion (confocal microscopy, 3 µM FLRFa, 30 min, 37° C.) was > 90 % of cells. As to (D)F-M-R-Fa (peptide), the EC50 of calcium mobilization (HEK-MrgC11 cells) in assay [1] is 108 nM. Besides, the EC50 of calcium mobilization (HEK-MrgA1 cells) with MrgA1-GFP (mouse) is 882 nM. Turning to R-F-OH (peptide), in assay [1], the EC50 of calcium mobilization (HEK-MrgC11 cells) was determined as 632 nM. Turning to NPAF (peptide), the EC50 of calcium mobilization (FLEXstation assay) in assay [1] stood at 282 nM. In the case of Dynnorphin-14 (peptide), the EC50 of calcium mobilization (FLEXstation assay) in assay [1] came out at 22 nM.
